Experimental data as given in patent publication US20240400677A1 (ELECTRA THERAPEUTICS, published 2024).
Numbering of substitutions follows the chain as printed.

T1: cynomolgus monkey SIRPγ on CHO cells (cynomolgus monkey, UniProt Q9P1W8 29-386 (human entry))
T1 construct: also called Cyno SIRPγ CHO
T1 chain: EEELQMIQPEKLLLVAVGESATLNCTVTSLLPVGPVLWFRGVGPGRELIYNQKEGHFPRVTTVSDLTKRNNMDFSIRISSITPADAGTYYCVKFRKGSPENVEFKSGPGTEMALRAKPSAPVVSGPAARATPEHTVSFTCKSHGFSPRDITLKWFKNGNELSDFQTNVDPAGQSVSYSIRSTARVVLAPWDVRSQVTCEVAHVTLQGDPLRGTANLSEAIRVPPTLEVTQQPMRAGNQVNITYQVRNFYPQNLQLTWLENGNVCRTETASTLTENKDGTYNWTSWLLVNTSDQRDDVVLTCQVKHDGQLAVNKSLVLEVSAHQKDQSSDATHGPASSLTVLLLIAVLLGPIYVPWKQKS

T2: cynomolgus monkey SIRPα on CHO cells (cynomolgus monkey, UniProt A0A2K5VYQ9 31-507)
T2 construct: whole, on cells; also called Cyno SIRPα CHO
T2 sequence: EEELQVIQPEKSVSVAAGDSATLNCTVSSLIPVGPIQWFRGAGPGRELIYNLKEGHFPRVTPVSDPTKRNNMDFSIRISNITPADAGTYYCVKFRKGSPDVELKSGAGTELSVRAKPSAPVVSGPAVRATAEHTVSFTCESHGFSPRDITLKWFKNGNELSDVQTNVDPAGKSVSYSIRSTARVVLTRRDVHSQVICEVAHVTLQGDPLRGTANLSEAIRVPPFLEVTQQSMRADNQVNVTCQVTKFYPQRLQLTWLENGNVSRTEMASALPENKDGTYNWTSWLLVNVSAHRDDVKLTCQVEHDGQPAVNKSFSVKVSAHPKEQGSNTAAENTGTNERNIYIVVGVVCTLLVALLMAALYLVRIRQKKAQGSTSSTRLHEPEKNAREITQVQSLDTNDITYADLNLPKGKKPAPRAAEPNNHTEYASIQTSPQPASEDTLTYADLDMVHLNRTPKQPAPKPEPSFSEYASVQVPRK

T3: cynomolgus monkey SIRPγ-His monomer protein (cynomolgus monkey, UniProt Q9P1W8 29-359 (human entry), limits assumed)
T3 construct: also called Cyno SIRPγ; Cyno SIRPγ-His
T3 chain: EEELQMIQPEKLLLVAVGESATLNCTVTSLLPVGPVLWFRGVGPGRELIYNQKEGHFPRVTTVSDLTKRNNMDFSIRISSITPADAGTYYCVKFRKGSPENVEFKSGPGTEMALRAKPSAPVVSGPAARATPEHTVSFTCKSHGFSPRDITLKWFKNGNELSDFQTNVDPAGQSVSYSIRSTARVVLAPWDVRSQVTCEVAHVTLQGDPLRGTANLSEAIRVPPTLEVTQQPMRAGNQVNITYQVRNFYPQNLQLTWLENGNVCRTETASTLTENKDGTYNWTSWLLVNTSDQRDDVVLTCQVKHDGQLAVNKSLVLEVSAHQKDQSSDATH

T4: Cynomolgus Monkey SIRPγ (plate-coated extracellular domain)
T4 construct: also called Cyno SIRPγ
T4 extracellular domain: T3 chain

B1: Antibody 88 (antibody, V domains shown)
VH: QVQLVQSGAEVKKPGASVKVSCKASGYTFTSHDINWVRQAPGQGLEWMGWMNANNGNAGYAQKFQGRVTMTRDTSTSTVYMELSSLRSEDTAVYYCAKDLSPSSSWSTYYYYYGMDVWGQGTMVTVSS
VL: DIQMTQSPSSLSASVGDRVTITCRASQSISNLLAWYQQKPGKAPKLLIYAASSLQSGVPSRFSGSGSGTDFTLTISSLQPEDFATYYCQQSYSTPYTFGQGTKLEIK
B2: Antibody 95 (antibody, V domains shown)
VH: QVQLVQSGAEVKKPGASVKVSCKASGYTFTSYYMHWVRQAPGQGLEWMGWMNPNSGNTGYAQKFQGRVTMTRDTSTSTVYMELSSLRSEDTAVYYCARDQMYSSYGMDVWGQGTTVTVSS
VL: B1 VL with Q27E, S30T, L32W, A50K, Q55E, S93G, L104V
B3: Antibody 90 (antibody, V domains shown)
VH: QVQLVQSGAEVKKPGASVKVSCKASGYTFTSYYMHWVRQAPGQGLEWMGWMNPNSDNTGYAQKFQGRVTMTRDTSTSTVYMELSSLRSEDTAVYYCARVGVGYGYYYYGMDVWGQGTTVTVSS
VL: B1 VL with S26G, S30G, N31D, L32Y, A34N, Y96W, L104V
B4: Antibody 83 (antibody, V domains shown)
VH: QVQLVQSGAEVKKPGASVKVSCKASGYSFSDYYMHWVRQAPGQGLEWMGWMSPNSGNTGYAQKFQGRVTMTRDTSTSTVYMELSSLRSEDTAVYYCARQREEYGHYYYGMDVWGQGTMVTVSS
VL: EIVMTQSPATLSVSPGERATLSCRASQSLGSTYLAWYQQKPGQAPRLLIYGASTRATGIPARFSGSGSGTEFTLTISSLQSEDFAVYYCQQYYSSPPTFGQGTKVEIK
B5: Antibody 94 (antibody, V domains shown)
VH: QVQLVQSGAEVKKPGASVKVSCKASGYTFTSYGISWVRQAPGQGLEWMGWISAYNGNTNYAQKFQGRVTMTRDTSTSTVYMELSSLRSEDTAVYYCARGTYYDYIWGSYRYSWFDYWGQGTLVTVSS
VL: not shown
B6: Antibody 97 (antibody, V domains shown)
VH: QVQLVQSGAEVKKPGASVKVSCKASGHTFNNNYIHWVRQAPGQGLEWMGIINPSGGSTSYAQKFQGRVTMTRDTSTSTVYMELSSLRSEDTAVYYCARQIQDYGYYYYGMDVWGQGTTVTVSS
VL: EIVMTQSPATLSVSPGERATLSCRASQSVSKYLAWYQQKPGQAPRLLIYAISARAAGIPARFSGSGSGTEFTLTISSLQSEDFAVYYCQQYYSSPPTFGQGTKVEIK
B7: Antibody 60 (antibody, V domains shown)
VH: EVQLLESGGGLVQPGGSLRLSCAASGFTLGSYWMHWVRQAPGKGLEWVSLISWDGGSTYYADSVKGRFTISRDNSKNTLYLQMNSLRAEDTAVYYCAKGPWVGYSGYDLNYYYYGMDVWGQGTTVTVSS
VL: B1 VL with S28D, S30R, N31R, L32A, Q89L, S91H, Y92N, T94Y, Y96P
B8: Antibody 80 (antibody, V domains shown)
VH: QVQLVQSGAEVKKPGASVKVSCKASGYTFTRYDINWVRQAPGQGLEWMGWMNPNSGNTGYAQKLQGRVTMTRDTSTSTVYMELSSLRSEDTAVYYCARERVGYCSSTSCLHPLDYWGQGTLVTVSS
VL: DIQMTQSPSSLSASVGDRVTITCRASQGIRNDLGWYQQKPGKAPKLLIYSASNLQSGVPSRFSGSGSGTDFTLTISSLQPEDFATYYCQQSYDVPLTFGGGTKVEIK
B9: Antibody 96 (antibody, V domains shown)
VH: B8 VH
VL: B8 VL

target: T5, extracellular binding domain of human SIRPγ (plate-coated) (human, UniProt Q9P1W8 29-360); test: competition ELISA, coated SIRPγ ECD, antibody 1 h then 10 µg/mL biotinylated CD47-Fc (blocked ligand), streptavidin-HRP
T5 construct: also called hSIRPγ
T5 sequence (Q9P1W8 29-360 limits assumed): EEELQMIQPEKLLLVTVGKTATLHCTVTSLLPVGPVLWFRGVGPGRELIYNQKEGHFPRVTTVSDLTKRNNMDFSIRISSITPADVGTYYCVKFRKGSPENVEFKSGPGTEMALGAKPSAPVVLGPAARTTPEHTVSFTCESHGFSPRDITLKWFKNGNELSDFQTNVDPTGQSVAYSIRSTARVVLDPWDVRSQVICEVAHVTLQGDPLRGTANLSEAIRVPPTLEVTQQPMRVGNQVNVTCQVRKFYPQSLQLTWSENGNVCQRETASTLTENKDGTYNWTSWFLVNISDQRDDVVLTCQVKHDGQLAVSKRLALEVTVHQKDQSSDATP
Protocol: To carry out the competition experiment, the extracellular binding domain of SIRPγ was coated onto a high protein-binding plate and blocked. A titration of each SIRPγ antibody was incubated on the plate for 1 hour. […] Following a wash, streptavidin-HRP was added. The plate was washed again and developed using a chemiluminescent substrate. The plate was read on a plate reader to assess luminescence. […] A known blocker antibody was used as a positive control.

IC50 (read off the curve) [µg/mL]	Binder
~0.4	B1
~1	B2
~0.2	B3
~0.2	B4
~0.2	B5
~0.3	B6

Target: T1, cynomolgus monkey SIRPγ on CHO cells
Test: flow cytometry, CHO transfectants, anti-human IgG
How it was run: (§1)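 Read-out is median fluorescence intensity for each antibody concentration, measured after a titration series is bound to stably transfected CHO cells and stained with labelled anti-human IgG. The scFv data come from myc-tagged crude PPE, also run on parental CHO-K1, where fold change below 2.0 denotes no binding.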

EC50 (read off the curve) [µg/mL]	Binder
~0.7	B7
~0.7	B8
~0.6	B9

target: T6, human SIRPγ on stably transfected CHO cells (human, UniProt Q9P1W8 29-387); test: flow cytometry, CHO transfectants, anti-human IgG
T6 construct: also called Human SIRPγ CHO
T6 sequence (Q9P1W8 29-387 limits assumed): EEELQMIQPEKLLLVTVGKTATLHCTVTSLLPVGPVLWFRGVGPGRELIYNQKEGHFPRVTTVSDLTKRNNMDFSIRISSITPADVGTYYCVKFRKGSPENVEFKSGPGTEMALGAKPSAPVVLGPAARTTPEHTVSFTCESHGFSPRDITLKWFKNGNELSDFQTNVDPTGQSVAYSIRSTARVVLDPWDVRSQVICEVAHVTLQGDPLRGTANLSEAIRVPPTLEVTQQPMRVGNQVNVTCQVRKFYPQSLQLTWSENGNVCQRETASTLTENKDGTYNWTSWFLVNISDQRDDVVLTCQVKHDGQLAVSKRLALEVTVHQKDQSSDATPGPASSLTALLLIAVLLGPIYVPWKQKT
How it was run: as §1

EC50 (read off the curve) [µg/mL]	Binder
~0.7	B1
~0.9	B7
~0.2	B8
~0.4	B9

target: T7, human SIRPβ1 on CHO cells (co-transfected with DAP12) (human, UniProt O00241 30-398); test: flow cytometry, CHO transfectants, anti-human IgG
T7 construct: whole, on cells; co-transfected with DAP12; also called Human SIRPβ1 CHO
T7 sequence (O00241 30-398): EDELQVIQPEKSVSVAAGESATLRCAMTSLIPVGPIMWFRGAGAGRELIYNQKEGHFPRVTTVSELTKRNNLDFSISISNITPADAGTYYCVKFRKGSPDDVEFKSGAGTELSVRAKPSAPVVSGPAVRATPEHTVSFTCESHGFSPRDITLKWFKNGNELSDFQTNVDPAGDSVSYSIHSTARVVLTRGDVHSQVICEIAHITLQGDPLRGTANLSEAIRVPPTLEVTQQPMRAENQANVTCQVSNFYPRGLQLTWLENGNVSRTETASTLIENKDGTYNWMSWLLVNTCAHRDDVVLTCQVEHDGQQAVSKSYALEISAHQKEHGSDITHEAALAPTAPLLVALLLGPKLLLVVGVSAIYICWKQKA
How it was run: as §1

binding result	Binder
no binding (tested: about 30 µg/mL)	B1
no binding (tested: about 30 µg/mL)	B2
no binding (tested: about 30 µg/mL)	B3
no binding (tested: about 20 µg/mL)	B7
no binding (tested: about 30 µg/mL)	B4
no binding (tested: about 30 µg/mL)	B5
no binding (tested: about 20 µg/mL)	B8
no binding (tested: about 30 µg/mL)	B9
no binding (tested: about 30 µg/mL)	B6

target: T2, cynomolgus monkey SIRPα on CHO cells; test: flow cytometry, CHO transfectants, anti-human IgG
How it was run: as §1

binding result	Binder
no binding (tested: about 30 µg/mL)	B1
no binding (tested: about 30 µg/mL)	B2
no binding (tested: about 30 µg/mL)	B3
no binding (tested: about 20 µg/mL)	B7
no binding (tested: about 30 µg/mL)	B4
no binding (tested: about 30 µg/mL)	B5
no binding (tested: about 20 µg/mL)	B8
no binding (tested: about 30 µg/mL)	B9
no binding (tested: about 30 µg/mL)	B6

target: T8, human SIRPγ-His monomer protein (human, UniProt Q9P1W8 29-360); test: BLI Octet, antibody on AHC, global 1:2 model
T8 construct: also called hSIRPγ
T8 sequence (Q9P1W8 29-360 limits assumed): as the sequence (Q9P1W8 29-360 limits assumed) above
Protocol: (§2) Antibodies were coated onto anti-human Fc capture (AHC) biosensors. SIRP-His monomer protein or bivalent SIRP protein with mouse Fc at four concentrations (200 nM, 100 nM, 50 nM, 25 nM) were exposed to the biosensor to measure on-rate kinetics of SIRP antibodies binding to SIRP protein. The biosensors were then exposed to wash buffer to measure off-rate kinetics. The resulting kinetic data were analyzed and fitted using a global 1:2 binding model.

Kd [nM]	Binder
136	B1
193	B2
175	B3
174	B4
30.1	B5
70.3	B9
362	B6

target: T9, bivalent human SIRPγ protein with mouse Fc (human, UniProt Q9P1W8 29-360); test: BLI Octet, antibody on AHC, global 1:2 model
T9 construct: also called Human SIRPγ-mFc
T9 sequence (Q9P1W8 29-360 limits assumed): as above
Protocol: as §2

Kd [nM]	Binder
50.6	B1
1280	B2
87.6	B3
53.2	B4
80.2	B5
21.5	B9
48.4	B6

Target: T3, cynomolgus monkey SIRPγ-His monomer …
Test: BLI Octet, antibody on AHC, global 1:2 model
Protocol: as §2

Kd [nM]	Binder
67.8	B1
40.3	B2
69.2	B3
11.7	B4
42.6	B5
211	B9
16.3	B6

target: T5, extracellular binding domain of human …; test: ELISA, coated SIRP ECD (2 µg/mL), anti-human IgG, luminescence
How it was run: (§3)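 Plate-coated SIRP extracellular domain (2 μg/mL), blocked, then exposed to purified antibodies in titration, after transient expression in Expi293F cells for 5 days and Protein A purification. Bound antibody is detected with anti-human IgG and a chemiluminescent substrate, and reported as relative luminescence units.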

EC50 (read off the curve) [µg/mL]	Binder
~0.04	B1
~0.07	B2
~0.02	B7
~0.02	B8

Target: T4, Cynomolgus Monkey SIRPγ (plate-coated …)
Test: as above
How it was run: as §3

EC50 (read off the curve) [µg/mL]	Binder
~0.03	B7
~0.05	B8
